Experimental data: patent US20260274985A1 (MYTHIC THERAPEUTICS, published 2026)
Substitutions are numbered along the chain they refer to.

T1: TROP2 on TROP2-positive NCI-H1975 cells (human, UniProt P09758 27-323)
T1 sequence: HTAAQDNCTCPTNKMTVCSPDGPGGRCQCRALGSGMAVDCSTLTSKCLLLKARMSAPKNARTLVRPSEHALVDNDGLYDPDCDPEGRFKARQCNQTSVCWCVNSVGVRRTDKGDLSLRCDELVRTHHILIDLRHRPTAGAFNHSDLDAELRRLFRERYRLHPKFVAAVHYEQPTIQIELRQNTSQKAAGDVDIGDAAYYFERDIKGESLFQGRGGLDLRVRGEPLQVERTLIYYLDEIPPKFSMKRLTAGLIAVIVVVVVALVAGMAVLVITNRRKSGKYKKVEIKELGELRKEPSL

T2: Human TROP2 Protein, His Tag (Acro Biosystems) (human, UniProt P09758 27-274)
T2 construct: Bought antigen used at 50 nM in the Octet screen; also called TACSTD2; not shown: His tag
T2 sequence (looked up): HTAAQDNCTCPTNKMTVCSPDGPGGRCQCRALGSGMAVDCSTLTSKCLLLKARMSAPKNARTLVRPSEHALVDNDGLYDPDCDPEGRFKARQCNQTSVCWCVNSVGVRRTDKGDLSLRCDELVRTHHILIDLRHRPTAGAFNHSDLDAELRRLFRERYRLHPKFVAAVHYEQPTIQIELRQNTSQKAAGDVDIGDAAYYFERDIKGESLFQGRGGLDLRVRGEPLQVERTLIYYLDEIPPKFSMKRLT

B1: MYT13398 (antibody, V domains shown)
VH: QVQLQQSGSELKKPGASVKVSCKASGYTFTNHGMNWVKQAPGQGLKWMGWINTYTGEPTYTDDFKGRFAFSLDTSVSTAYLQISSLKADDTAVYFCARGGFGSSYWYFDVWGQGSLVTVSS
VL: DIQLTQSPSSLSASVGDRVSITCKASQDVSIAHAWYQQKPGKAPKLLIYSASYRYTGVPDRFSGSGSGTDFTLTISSLQPEDFAVYYCQQHYHTPLTFGAGTKVEIK
B2: MYT13413 (antibody, V domains shown)
VH: B1 VH with H32Y, G66H
VL: B1 VL with H33V, A51H, S52H, H93I
B3: MYT11705 (antibody, V domains shown)
VH: QVQLQESGPGLVKPSETLSLTCTVSHGSISSYGVHWIRQPPGKGLEWIGVIWTSGVTDYNSALMGRVTISVDTSKNQFSLKLSSVTAADTAVYYCARDGDYDRYTMDYWGQGTLVTVSS
VL: DIVMTQSPDSLAVSLGERATINCRASKSVSTSGYSYMHWYQQKPGQPPKLLIYLASNLESGVPDRFSGSGSGTDFTLTISSLQAEDVAVYYCQHSRELPYTFGQGTKLEIK
notes: hu7E6SVG variant, His at HCV position 26 (H1 01); screened as IgG in Expi293 supernatant
B4: MYT13446 (antibody, V domains shown)
VH: B3 VH with H26G, R103H
VL: B3 VL with E59H, T101H
B5: MYT13288 (antibody, V domains shown)
VH: B3 VH with H26G, D102H
VL: B3 VL with Q93H
B6: MYT13279 (antibody, V domains shown)
VH: B3 VH with H26G, R103H
VL: B3 VL with E59H
B7: MYT13283 (antibody, V domains shown)
VH: B3 VH with H26G, D102H
VL: B3 VL with S60H
B8: MYT13289 (antibody, V domains shown)
VH: B3 VH with H26G, R103H
VL: B3 VL with Q93H
B9: MYT13299 (antibody, V domains shown)
VH: B3 VH with H26G, R103H
VL: B3 VL with E97H
B10: MYT13298 (antibody, V domains shown)
VH: B3 VH with H26G, D102H
VL: B3 VL with E97H
B11: MYT13300 (antibody, V domains shown)
VH: B3 VH with H26G, M106H
VL: B3 VL with E97H
B12: MYT13285 (antibody, V domains shown)
VH: B3 VH with H26G, M106H
VL: B3 VL with S60H
B13: MYT13290 (antibody, V domains shown)
VH: B3 VH with H26G, M106H
VL: B3 VL with Q93H
B14: MYT11720 (antibody, V domains shown)
VH: B3 VH with H26G, G55H
VL: B3 VL
notes: hu7E6SVG variant, His at HCV position 55 (H2 06); screened as IgG in Expi293 supernatant
B15: MYT11714 (antibody, V domains shown)
VH: B3 VH with H26G, H35A
VL: B3 VL
notes: hu7E6SVG variant, Ala in place of His at HCV position 35 (H1 10); screened as IgG in Expi293 supernatant
B16: MYT11719 (antibody, V domains shown)
VH: B3 VH with H26G, S54H
VL: B3 VL
notes: hu7E6SVG variant, His at HCV position 54 (H2 05); screened as IgG in Expi293 supernatant
B17: MYT11707 (antibody, V domains shown)
VH: B3 VH with H26G, S28H
VL: B3 VL
notes: hu7E6SVG variant, His at HCV position 28 (H1 03); screened as IgG in Expi293 supernatant
B18: MYT11710 (antibody, V domains shown)
VH: B3 VH with H26G, S31H
VL: B3 VL
notes: hu7E6SVG variant, His at HCV position 31 (H1 06); screened as IgG in Expi293 supernatant
B19: MYT11716 (antibody, V domains shown)
VH: B3 VH with H26G, I51H
VL: B3 VL
notes: hu7E6SVG variant, His at HCV position 51 (H2 02); screened as IgG in Expi293 supernatant
B20: MYT11718 (antibody, V domains shown)
VH: B3 VH with H26G, T53H
VL: B3 VL
notes: hu7E6SVG variant, His at HCV position 53 (H2 04); screened as IgG in Expi293 supernatant
B21: MYT11713 (antibody, V domains shown)
VH: B3 VH with H26G, V34H
VL: B3 VL
notes: hu7E6SVG variant, His at HCV position 34 (H1 09); screened as IgG in Expi293 supernatant
B22: MYT11708 (antibody, V domains shown)
VH: B3 VH with H26G, I29H
VL: B3 VL
notes: hu7E6SVG variant, His at HCV position 29 (H1 04); screened as IgG in Expi293 supernatant
B23: MYT11722 (antibody, V domains shown)
VH: B3 VH with H26G, T57H
VL: B3 VL
notes: hu7E6SVG variant, His at HCV position 57 (H2 08); screened as IgG in Expi293 supernatant
B24: MYT11721 (antibody, V domains shown)
VH: B3 VH with H26G, V56H
VL: B3 VL
notes: hu7E6SVG variant, His at HCV position 56 (H2 07); screened as IgG in Expi293 supernatant
B25: MYT11725 (antibody, V domains shown)
VH: B3 VH with H26G, N60H
VL: B3 VL
notes: hu7E6SVG variant, His at HCV position 60 (H2 11); screened as IgG in Expi293 supernatant
B26: MYT11709 (antibody, V domains shown)
VH: B3 VH with H26G, S30H
VL: B3 VL
notes: hu7E6SVG variant, His at HCV position 30 (H1 05); screened as IgG in Expi293 supernatant
B27: MYT11724 (antibody, V domains shown)
VH: B3 VH with H26G, Y59H
VL: B3 VL
B28: MYT11706 (antibody, V domains shown)
VH: B3 VH with H26G, G27H
VL: B3 VL
notes: hu7E6SVG variant, His at HCV position 27 (H1 02); screened as IgG in Expi293 supernatant
B29: MYT11712 (antibody, V domains shown)
VH: B3 VH with H26G, G33H
VL: B3 VL
notes: hu7E6SVG variant, His at HCV position 33 (H1 08); screened as IgG in Expi293 supernatant
B30: MYT11723 (antibody, V domains shown)
VH: B3 VH with H26G, D58H
VL: B3 VL
notes: hu7E6SVG variant, His at HCV position 58 (H2 09); screened as IgG in Expi293 supernatant
B31: MYT11715 (antibody, V domains shown)
VH: B3 VH with H26G, V50H
VL: B3 VL
notes: hu7E6SVG variant, His at HCV position 50 (H2 01); screened as IgG in Expi293 supernatant
B32: MYT11711 (antibody, V domains shown)
VH: B3 VH with H26G, Y32H
VL: B3 VL
notes: hu7E6SVG variant, His at HCV position 32 (H1 07); screened as IgG in Expi293 supernatant

Assays:
[1] = target: T1, TROP2 on TROP2-positive NCI-H1975 cells; experiment: cell-based or functional assay
[2] = target: T2, Human TROP2 Protein, His Tag (Acro …); experiment: BLI (Octet) [1/2]
Description: After allowing for four days of protein expression, cell culture supernatants were collected, quantified by SDS-PAGE analysis (DNS), and the pH dependence of the variant was evaluated using biolayer interferometry (BLI) on an Octet RED 96e instrument. Briefly, cell culture supernatants were diluted based on qualitative expression level of the variant determined by visual examination of SDS-PAGE gels, 5 μL of cell culture supernatant was diluted into 195 μL of 1×PBST, pH 7.4 for high expressors, 25 μL of cell culture supernatant was diluted into 175 μL of 1×PBST, pH 7.4 for medium expressors and 100 μL of cell culture supernatant was diluted into 100 μL of 1×PBST, pH 7.4 for low expressors for loading onto the sensor tips. The resulting diluted supernatants were then captured on an anti-human Fc sensor (Forte Bio). A baseline was established using 1×PBST (50 mM Potassium Phosphate Buffer+150 mM NaCl+0.05% Tween 20) pH 7.4, and the sensor was associated with 50 nM of TROP2 (Human TROP2 Protein, His Tag, Acro Biosystems) in 1×PBST pH 7.4 for 120 sec to generate an association curve. In the dissociation phase, the antibody-antigen complex on the sensor was exposed to 1×PBST pH 7.4 or pH 5.4, for 300 sec. Association and dissociation phase curves were examined for the starting ABPC antibody (with no substitutions) and each corresponding antibody variant at pH 5.4 and pH 7.4 to inform on two criteria: a) enhanced dissociation (i.e., higher koff values) at pH 5.4 due to histidine or alanine substitution compared to the starting ABPC, (with no substitutions), and b) reduced dissociation at pH 7.4 (i.e., lower koff values) compared to pH 5.4 in the antibody variant itself and with the starting ABPC (with no substitutions). […] It was also noted that while some mutations obliterated TROP2 binding, others were tolerated with little or n change in TROP2 binding kinetics.

Row | Binder | FOW H1975 (10 nM) [1] | binding result [2]
1 | B1 | 1.07 fold over parent antibody | –
2 | B2 | 1.06 fold over parent antibody | –
3 | B3 | – | binds
4 | B4 | 1.09 fold over parent antibody | –
5 | B5 | 1.15 fold over parent antibody | –
6 | B6 | 1.37 fold over parent antibody | –
7 | B7 | 1.51 fold over parent antibody | –
8 | B8 | 1.37 fold over parent antibody | –
9 | B9 | 1.35 fold over parent antibody | –
10 | B10 | 1.59 fold over parent antibody | –
11 | B11 | 1.39 fold over parent antibody | –
12 | B12 | 1.61 fold over parent antibody | –
13 | B13 | 1.7 fold over parent antibody | –
14 | B14 | – | binds
15 | B15 | – | binds
16 | B16 | – | binds

Row | Binder | FOW H1975 (10 nM) [1] | binding result [2]
17 | B17 | – | binds
18 | B18 | – | binds
19 | B19 | – | binds
20 | B20 | – | binds
21 | B21 | – | binds
22 | B22 | – | binds
23 | B23 | – | binds
24 | B24 | – | binds
25 | B25 | – | binds
26 | B26 | – | binds
27 | B27 | – | binds
28 | B28 | – | binds
29 | B29 | – | binds
30 | B30 | – | no binding (tested: 50 nM)
31 | B31 | – | no binding (tested: 50 nM)
32 | B32 | – | binds
